Data from patent publication US20250296971A1, “GASTRIC INHIBITORY PEPTIDE RECEPTOR LIGANDS” (priority 2021, published 2025).
*1 amine or outer side, *2 acyl side, *3 side chain or, on linkers, in order; H or OH if unused. Bridges are numbered along the chain shown (N, C = ends). Primed or numbered codes have the meaning given here. Side-chain parts run from the residue outwards. [ ]: non-standard residue; d: D form. The star is where a group is joined. EuDOTA = DOTA europium complex, O=C([O-])CN1CCN(CC(=O)[O-])CCN(CC(=O)*)CCN(CC(=O)[O-])CC1.[Eu+3]; Ttds = 1,13-diamino-4,7,10-trioxatridecan-succinamic acid, NCCCOCCOCCOCCCNC(=O)CCC(=O)*; NH(1-deoxy-D-glucityl) = OC[C@@H](O)[C@@H](O)[C@H](O)[C@@H](O)CN*; APAc″ = 4-amino-1-carboxymethylpiperidine, NC1CCN(CC(=O)*)CC1; dE(AGLU) = D-glutamic acid bearing 1-amino-1-deoxy-D-glucitol; Ttds(4) = 1,13-diamino-4,7,10-trioxatridecan-succinamic acid; Pro(trans-4-NH2) = O=C([C@@H]1C[C@@H](N[*:3])CN1[*:1])[*:2]; DOTA = O=C(O)CN1CCN(CC(=O)O)CCN(CC(=O)*)CCN(CC(=O)O)CC1; 2Lut = 2,6-lutidylidene bridge between two thiols; Trp(5-Cl) = N[C@@H](Cc1c[nH]c2ccc(Cl)cc12)C(=O)O; Pyridine(2,6-diCH2) = c1cc(C[*:1])nc(C[*:2])c1; Trp(6-F) = N[C@@H](Cc1c[nH]c2cc(F)ccc12)C(=O)O; APAc = 4-amino-1-carboxymethylpiperidine; 1Nal = N[C@@H](Cc1cccc2ccccc12)C(=O)O; mXylylene = c1cc(C[*:1])cc(C[*:2])c1; LuDOTA = DOTA Lutetium(III) complex; Glutaryl = O=C(CCCC(=O)[*:2])[*:1]; AGLU = 1-amino-1-deoxy-D-glucitol; Hyp = O=C(O)[C@@H]1C[C@@H](O)CN1; Cysteamide = C(CS[*:3])N[*:1]; dGlu(AGLU) = not defined here; 2Lut(3) = 2,6-lutidylidene; hSer = N[C@@H](CCO)C(=O)O; Ac6c = NC1(C(=O)O)CCCCC1; Api = NC1(C(=O)O)CCNCC1; Thp = NC1(C(=O)O)CCOCC1; Aib = CC(C)(N)C(=O)O

Molecular target: human Gastric Inhibitory Peptide Receptor (human) (UniProt P48546)
Sequence (P48546 22-466 limits assumed): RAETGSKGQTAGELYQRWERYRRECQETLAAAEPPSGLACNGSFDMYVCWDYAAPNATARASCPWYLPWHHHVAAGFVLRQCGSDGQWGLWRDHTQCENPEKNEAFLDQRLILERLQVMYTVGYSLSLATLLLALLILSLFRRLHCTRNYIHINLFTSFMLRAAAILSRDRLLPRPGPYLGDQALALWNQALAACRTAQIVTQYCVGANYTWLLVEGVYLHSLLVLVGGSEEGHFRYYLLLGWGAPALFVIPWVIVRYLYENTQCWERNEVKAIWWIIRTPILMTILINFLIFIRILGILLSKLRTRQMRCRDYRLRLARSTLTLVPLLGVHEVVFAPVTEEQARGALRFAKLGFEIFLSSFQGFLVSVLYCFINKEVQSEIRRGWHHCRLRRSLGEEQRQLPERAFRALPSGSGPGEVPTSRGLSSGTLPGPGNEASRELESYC
Test: FACS competition with GIP-057 on CHO-K1-hGIPR cells; pIC50 category A: >8.0

Row | Binder | pIC50 [pic50]
1 | {DOTA-Ttds}-DW[Trp(5-Cl)][Hyp]E[dL]C[Api](DOTA)LICK(DOTA)-NH2 (linker 7-11 via 2Lut(3)) [DOTA-Ttds-Asp-Trp-5Clw-Hyp-Glu-leu-[Cys(2Lut)-Apc(DOTA)-Leu-Ile-Cys]-Lys(DOTA)-NH2] | > 8
2 | {AGLU-Glutaryl}-[hSer]W[Trp(5-Cl)][Pro(trans-4-NH2)]E[dL]C[Api](DOTA)LIC-{APAc-dE(AGLU)-NH2} (linker 7-11 via Pyridine(2,6-diCH2)) [AGLU-Glutar-Hse-Trp-5Clw-Tap-Glu-leu-[Cys(2Lut)-Apc(DOTA)-Leu-Ile-Cys]-APAc-glu(AGLU)-NH2] | > 8
3 | {EuDOTA-dGlu(AGLU)-APAc}-DW[Trp(5-Cl)][Hyp]E[dL]C[Thp]LIC-{APAc-dGlu(AGLU)-NH2} (linker 7-11 via 2Lut; reading uncertain; also: Eu complex of DOTA) [EuDOTA-glu(AGLU)-APAc-Asp-Trp-5Clw-Hyp-Glu-leu-[Cys(2Lut)-Thp-Leu-Ile-Cys]-APAc-glu(AGLU)-NH2] | > 8
4 | DWXXEXCXLIC (N-term AGLU-Glutar; 5Clw; Hyp; leu (D-Leu); thioether cycle [Cys(2Lut)..Cys]; Apc(GaDOTA); C-term APAc-glu(AGLU)-NH2) [AGLU-Glutar-Asp-Trp-5Clw-Hyp-Glu-leu-[Cys(2Lut)-Apc(GaDOTA)-Leu-Ile-Cys]-APAc-glu(AGLU)-NH2] | > 8
5 | {AGLU-Glutaryl-APAc}-DW[Trp(5-Cl)][Hyp]E[dL]C[Api]LIC-{APAc-dE(AGLU)-NH2} (linker 7-11 via Pyridine(2,6-diCH2); not fully specified (residue 8)) | > 8
6 | {DOTA-dE(AGLU)}-DW[Trp(5-Cl)][Pro(trans-4-NH2)]E[dL]C[Api]([Glutaryl-NH(1-deoxy-D-glucityl)])LIC-{APAc-dE(AGLU)-NH2} (linker 7-11 via Pyridine(2,6-diCH2)) [DOTA-glu(AGLU)-Asp-Trp-5Clw-Tap-Glu-leu-[Cys(2Lut)-Apc(AGLU-Glutar)-Leu-Ile-Cys]-APAc-glu(AGLU)-NH2] | > 8
7 | {LuDOTA-dE(AGLU)-APAc}-DW[Trp(5-Cl)][Hyp]E[dL]C[Thp]LIC-{APAc-dE(AGLU)-NH2} (linker 7-11 via Pyridine(2,6-diCH2)) [LuDOTA-glu(AGLU)-APAc-Asp-Trp-5Clw-Hyp-Glu-leu-[Cys(2Lut)-Thp-Leu-Ile-Cys]-APAc-glu(AGLU)-NH2] | > 8
8 | {DOTA-Ttds}-DW[Trp(5-Cl)][Hyp]E[dL]C[Thp]LICK(DOTA)-NH2 (linker 7-11 via 2Lut(3)) [DOTA-Ttds-Asp-Trp-5Clw-Hyp-Glu-leu-[Cys(2Lut)-Thp-Leu-Ile-Cys]-Lys(DOTA)-NH2] | > 8
9 | {DOTA-dE(AGLU)}-DW[Trp(5-Cl)][Hyp]E[dL]C[Thp]LIC-{APAc-dE(AGLU)-NH2} (linker 7-11 via Pyridine(2,6-diCH2)) [DOTA-glu(AGLU)-Asp-Trp-5Clw-Hyp-Glu-leu-[Cys(2Lut)-Thp-Leu-Ile-Cys]-APAc-glu(AGLU)-NH2] | > 8
10 | {AGLU-Glutaryl-APAc}-DW[Trp(5-Cl)][Pro(trans-4-NH2)]E[dL]C[Api]LIC-{APAc-dE(AGLU)-NH2} (linker 7-11 via Pyridine(2,6-diCH2); not fully specified (residue 8); also: DOTA complexed with Ga (GaDOTA)) | > 8
11 | {DOTA-Ttds}-DW[Trp(5-Cl)]PE[dL]C[Ac6c]LI[Cysteamide] (linker (positions not given here) via mXylylene; not fully specified (bridges); printed as DOTA-Ttds-Asp-Trp-5Clw-Pro-Glu-leu-[Cys(3MeBn)-Egz-Leu-Ile-AET]) [DOTA-Ttds-Asp-Trp-5Clw-Pro-Glu-leu-[Cys(3MeBn)-Egz-Leu-Ile-AET]] | > 8
12 | {DOTA-APAc″}-DW[Trp(5-Cl)]PE[dL]C[Aib]LI[Cysteamide] (linker 7-11 via mXylylene) [DOTA-APAc-Asp-Trp-5Clw-Pro-Glu-leu-[Cys(3MeBn)-Aib-Leu-Ile-AET]] | > 8
13 | Ac-D[Trp(6-F)][1Nal]PE[dL]C[Aib]LIC-{Ttds(4)-K(DOTA)-NH2} (linker 7-11 via mXylylene) [Ac-Asp-6Fw-1Ni-Pro-Glu-leu-[Cys(3MeBn)-Aib-Leu-Ile-Cys]-Ttds-Lys(DOTA)-NH2] | > 8
14 | {DOTA-dE(AGLU)-APAc}-DW[Trp(5-Cl)][Hyp]E[dL]C[Api]([Glutaryl-NH(1-deoxy-D-glucityl)])LIC-{APAc-dE(AGLU)-NH2} (linker 7-11 via Pyridine(2,6-diCH2)) | > 8
15 | {DOTA-Ttds}-DW[Trp(5-Cl)]PE[dL]C[Aib]LI[Cysteamide] (linker (positions not given here) via 2Lut(3); not fully specified (bridges); printed as DOTA-Ttds-Asp-Trp-5Clw-Pro-Glu-leu-[Cys(2Lut)-Aib-Leu-Ile-AET]) [DOTA-Ttds-Asp-Trp-5Clw-Pro-Glu-leu-[Cys(2Lut)-Aib-Leu-Ile-AET]] | > 8
16 | {AGLU-Glutaryl}-DW[Trp(5-Cl)][Pro(trans-4-NH2)]E[dL]C[Api](DOTA)LI[dC]-{APAc-dE(AGLU)-NH2} (linker 7-11 via Pyridine(2,6-diCH2)) [AGLU-Glutar-Asp-Trp-5Clw-Tap-Glu-leu-[Cys(2Lut)-Apc(DOTA)-Leu-Ile-cys]-APAc-glu(AGLU)-NH2] | > 8
